Experimental findings from publication PMC3969221, “Bacillus thuringiensis Cry1A toxins are versatile proteins with multiple modes of action: two distinct pre-pores are involved in toxicity” (Biochemical Journal, 2014) are described below.

This assay concerns the target T1, Manduca sexta cadherin protein fragment (CR7–CR12) (Manduca sexta).
T1 construct: Manduca sexta cadherin receptor, fragment CR7–CR12, residues 810–1480; also called cadherin fragment; cadherin receptor fragment
Nature of the assay: ELISA; 1 μg of cadherin fragment coated per well; toxin or protoxin dilutions in PBS, 1 h at 37°C; detected with polyclonal anti-Cry1Ab antibody; Scatchard analysis; apparent Kd. The following applies: both partners purified. In general terms: ELISA stands for enzyme-linked immunosorbent assay.

B1: trypsin-activated Cry1Ab toxin (domain or fragment)
chain: not shown
modifications: Wild-type toxin cut from the protoxin by trypsin. Limits are not given; the conventional Cry1A trypsin core is used (cut after R28, C-terminal end near residue 619). Subspecies is not printed …
Regarding B1, the Kd is 3.3 ± 0.6 nM.
